Assay [1] concerns the target T1, recombinant human CD30 extra cellular domain (ECD) protein (human, UniProt P28908 19-379).
T1 construct: Bought from R&D systems; also called rhCD30; human CD30 ECD
T1 sequence: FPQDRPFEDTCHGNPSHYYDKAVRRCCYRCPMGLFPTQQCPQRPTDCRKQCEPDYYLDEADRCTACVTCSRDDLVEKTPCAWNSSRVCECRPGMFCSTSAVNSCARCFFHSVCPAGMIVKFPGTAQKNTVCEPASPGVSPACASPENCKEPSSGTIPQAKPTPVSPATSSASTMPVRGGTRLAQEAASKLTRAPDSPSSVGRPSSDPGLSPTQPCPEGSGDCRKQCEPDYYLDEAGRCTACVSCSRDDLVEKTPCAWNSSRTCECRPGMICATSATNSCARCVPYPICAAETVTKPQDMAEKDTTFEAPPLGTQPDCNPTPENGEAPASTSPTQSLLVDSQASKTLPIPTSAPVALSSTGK
As to the kind of experiment: SPR Biacore T200, His-tagged sdAb/Fab captured, 100.0 nM human CD30 as analyte, single curve. The method, then:
(§1) Some of these unique binders were subjected to for further characterization by surface plasmon resonance (SPR) on a BIAcore T200 instrument (GE Healthcare). The experiment was carried out as follows. The crude sdAb/Fab proteins were captured through an affinity tag (6×Histidine tag) onto the sensorchip. High-concentration (100.0 nM) of human CD30 (R&D systems, Cat. #6126-CD) flowed over the sensorchip surface, and were allowed to bind the antibody fragments for 300 s followed by injection of the running buffer to allow dissociation of the complex. On-rate ([…] and off-rate (kd) were roughly calculated based on one association and dissociation curve, and were used to estimate the equilibrium dissociation constant (KD). 5F11 scFv (SEQ ID NO:216, prepared according to WO2017066122) was used as a positive control. Data were summarized in Table 3 below. The first 10 antibodies in Table 3 were sdAbs with amino acid sequence ID numbers summarized in Table 1, the last antibody was 5F11 scFv, and the remainings were human Fabs with CDR and scFv amino acid sequence ID numbers in Table 2.
A general note: SPR reads the build-up and loss of mass on a sensor chip optically.

For assay [2], the target named is T2, human CD30 CRD1 (F19-Q68) Fc fusion protein with human IgG1 Fc fragment at the C terminus (human).
T2 construct: also called CRD1 construct
In words: ELISA on the CD30 fragment CRD1, absorbance OD 450 nm; sdAb concentration not given. On the technique in general: ELISA stands for enzyme-linked immunosorbent assay.

The target of another assay is T3, rhesus CD30 ECD (rhesus, UniProt P28908 19-379 (human entry)).
T3 construct: Produced in house; also called recombinant rhesus CD30; rhesus CD30 protein
T3 chain: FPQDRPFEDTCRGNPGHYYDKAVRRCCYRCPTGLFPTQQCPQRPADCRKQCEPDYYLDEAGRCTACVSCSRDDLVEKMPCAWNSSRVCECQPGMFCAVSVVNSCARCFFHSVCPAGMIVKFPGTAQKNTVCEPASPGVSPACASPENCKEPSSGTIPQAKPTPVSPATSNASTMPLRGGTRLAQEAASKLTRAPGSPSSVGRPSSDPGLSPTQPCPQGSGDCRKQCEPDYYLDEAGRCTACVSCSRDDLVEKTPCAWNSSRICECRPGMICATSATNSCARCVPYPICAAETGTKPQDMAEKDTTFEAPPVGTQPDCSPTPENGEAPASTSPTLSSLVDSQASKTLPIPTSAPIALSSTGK
In words: ELISA on rhesus CD30 ECD protein; member of the group by paragraph 437.

The target of assay [3] is T1, recombinant human CD30 extra cellular …. As to the kind of experiment: SPR Biacore T200, scFv captured, 100.0 nM human CD30 as analyte, single curve. The protocol: as §1
For assay [4] the target is unchanged. Described as above. The method, then: as §1
This is another data set of the same source.

Assay [5] shares this target. In words: SPR Biacore T200, scFv captured, 100.0 nM human CD30 as analyte, single curve; beyond off-rate detection limit. The protocol:
as §1

Assay [6] has as its target T4, human CD30 CRD6 (E282-K379) Fc fusion protein with human IgG1 Fc fragment at the C terminus (human).
T4 construct: also called CRD6 construct
In words: SPR, captured scFv, human IgG1 Fc-fused CRD protein as analyte. The protocol: as §1, with “2. […]” for “2.”

T4 sequence (chain, as listed by the source limits assumed): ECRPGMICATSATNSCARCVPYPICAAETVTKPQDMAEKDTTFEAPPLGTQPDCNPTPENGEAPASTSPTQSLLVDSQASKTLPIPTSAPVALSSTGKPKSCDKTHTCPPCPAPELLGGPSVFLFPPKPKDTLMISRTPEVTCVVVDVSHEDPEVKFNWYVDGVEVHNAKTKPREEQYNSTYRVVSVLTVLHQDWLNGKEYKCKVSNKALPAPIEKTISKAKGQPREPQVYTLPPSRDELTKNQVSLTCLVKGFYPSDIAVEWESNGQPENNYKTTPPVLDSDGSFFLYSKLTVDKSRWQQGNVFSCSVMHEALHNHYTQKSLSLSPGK

B1: AS53445 sdAb (VHH)
VHH: QVQLVESGGGSVQAGGSLRLSCTASGYIFCMGWFRQAPGKAREGIATIYTGGDSTYYDDSVKGRFTISRDNAKNTVYLQMNSLKPEDTAMYYCAAGGQECYLTNWVSYWGQGTQVTVSS
notes: Camel sdAb
The term Kd denotes the concentration at which binding is half-saturated. Usually koff stands for a measure of how fast the partners let go of each other. As usually defined, the kon is a measure of how fast the partners come together. On to B1, for which, in assay [1], the Kd came to 80 nM, the koff is 0.0085 s⁻¹, the kon is 110000 M⁻¹ s⁻¹ and the “rhCD30 Binding (RU)” value was found to be 101 RU. The binding result in assay [2] is on record as “binds”. For the same molecule, the binding result with rhesus CD30 ECD was “binds”.

B2: 5F11 scFv (scFv)
scFv: DIQMTQSPTSLSASVGDRVTITCRASQGISSWLTWYQQKPEKAPKSLIYAASSLQSGVPSRFSGSGSGTDFTLTISSLQPEDFATYYCQQYDSYPITFGQGTRLEIKGSTSGSGKPGSGEGSTKGQVQLQQWGAGLLKPSETLSLTCAVYGGSFSAYYWSWIRQPPGKGLEWIGDINHGGGTNYNPSLKSRVTISVDTSKNQFSLKLNSVTAADTAVYYCASLTAYWGQGSLVTVSS
notes: Positive control; captured like the other fragments, tag not spelled out for it
For B2, the figures for the Kd in assay [3] and in assay [4] were less than 0.1 nM and less than 0.0862 nM, respectively. Besides, the kon in assay [4] was determined as 120000 M⁻¹ s⁻¹. For the same molecule, the koff in assay [5] was less than 1e-05 s⁻¹. For the same molecule, the binding result in assay [6] is “binds”.

B3: AS53574 sdAb (VHH)
VHH: QVKLVESGGGSVQAGGSLRLSCAASGYIYSSNCMGWFRQAPGKEREWVARIHTGSGSTYYADSVKGRFTISQDNAKNTVYLQMNSLRPEDTAMYDCAAGRVVLGAVVCTNEYWGQGTQVTVSS
notes: Camel sdAb
Turning to B3, in assay [1], the Kd was 3 nM, the koff was determined as 0.00021 s⁻¹, the kon came to 69000 M⁻¹ s⁻¹ and the “rhCD30 Binding (RU)” value worked out at 569 RU. For the same molecule, the binding result in assay [2] is “binds”. Also, the binding result with rhesus CD30 ECD is recorded as “binds”.

These data come from US20220144960A1 (NANJING LEGEND BIOTECH, published 2022).
